Data as given in the supplement of paper PMC10065799, “High-throughput profiling of sequence recognition by tyrosine kinases and SH2 domains using bacterial peptide display” (eLife, 2023).

Legend:
[1] = target: Jak2 (UniProt O60674); test: phosphorylation enrichment, bacterial display (enrichment ratio); higher = better substrate or ligand; peptides without Tyr show the background
[2] = system: c-Src; test: as above
[3] = target: FGFR3 (UniProt P22607); test: as above
[4] = system: c-Abl (mouse); test: as above
[5] = target: Fes (UniProt P07332); test: as above
Fes, sequence (P07332 whole entry, looked up): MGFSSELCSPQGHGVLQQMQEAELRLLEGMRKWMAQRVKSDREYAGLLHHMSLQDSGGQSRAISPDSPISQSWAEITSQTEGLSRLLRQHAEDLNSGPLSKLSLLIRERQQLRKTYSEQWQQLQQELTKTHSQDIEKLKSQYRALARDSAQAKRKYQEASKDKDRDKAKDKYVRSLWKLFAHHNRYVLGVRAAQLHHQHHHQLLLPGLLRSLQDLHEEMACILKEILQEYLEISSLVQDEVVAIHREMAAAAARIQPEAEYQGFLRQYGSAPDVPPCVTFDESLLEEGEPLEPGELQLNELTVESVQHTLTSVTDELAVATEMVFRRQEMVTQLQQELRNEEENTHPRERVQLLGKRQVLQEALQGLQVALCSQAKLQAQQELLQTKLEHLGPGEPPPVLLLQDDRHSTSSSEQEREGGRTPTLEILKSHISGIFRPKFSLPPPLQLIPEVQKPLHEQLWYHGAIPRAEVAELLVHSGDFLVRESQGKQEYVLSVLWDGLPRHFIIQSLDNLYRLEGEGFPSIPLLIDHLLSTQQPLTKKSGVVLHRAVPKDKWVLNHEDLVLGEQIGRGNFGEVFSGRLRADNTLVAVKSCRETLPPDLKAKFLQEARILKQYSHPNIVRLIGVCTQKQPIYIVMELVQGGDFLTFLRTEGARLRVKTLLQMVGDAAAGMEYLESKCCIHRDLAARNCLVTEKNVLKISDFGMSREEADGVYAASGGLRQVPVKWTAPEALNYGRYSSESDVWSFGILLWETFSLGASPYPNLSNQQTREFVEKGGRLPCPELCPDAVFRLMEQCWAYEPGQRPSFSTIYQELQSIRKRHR

[6] = target: Fyn (UniProt P06241); test: as above
Fyn, sequence (P06241 whole entry, looked up): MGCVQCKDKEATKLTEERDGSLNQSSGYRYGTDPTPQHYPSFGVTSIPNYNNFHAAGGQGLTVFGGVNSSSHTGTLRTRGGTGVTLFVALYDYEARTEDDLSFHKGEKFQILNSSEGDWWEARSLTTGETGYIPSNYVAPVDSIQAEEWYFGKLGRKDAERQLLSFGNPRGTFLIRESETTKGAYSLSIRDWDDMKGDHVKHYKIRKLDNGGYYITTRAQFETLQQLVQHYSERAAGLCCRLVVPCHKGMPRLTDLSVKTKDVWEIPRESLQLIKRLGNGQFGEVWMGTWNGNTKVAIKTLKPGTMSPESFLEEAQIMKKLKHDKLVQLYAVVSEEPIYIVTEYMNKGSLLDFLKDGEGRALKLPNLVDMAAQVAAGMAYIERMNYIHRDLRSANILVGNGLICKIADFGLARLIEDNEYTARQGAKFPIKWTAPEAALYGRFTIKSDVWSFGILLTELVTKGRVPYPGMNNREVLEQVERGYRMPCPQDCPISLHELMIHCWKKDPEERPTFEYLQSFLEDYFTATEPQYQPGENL

[7] = target: Hck (UniProt P08631); test: as above
Hck, sequence (P08631 whole entry, looked up): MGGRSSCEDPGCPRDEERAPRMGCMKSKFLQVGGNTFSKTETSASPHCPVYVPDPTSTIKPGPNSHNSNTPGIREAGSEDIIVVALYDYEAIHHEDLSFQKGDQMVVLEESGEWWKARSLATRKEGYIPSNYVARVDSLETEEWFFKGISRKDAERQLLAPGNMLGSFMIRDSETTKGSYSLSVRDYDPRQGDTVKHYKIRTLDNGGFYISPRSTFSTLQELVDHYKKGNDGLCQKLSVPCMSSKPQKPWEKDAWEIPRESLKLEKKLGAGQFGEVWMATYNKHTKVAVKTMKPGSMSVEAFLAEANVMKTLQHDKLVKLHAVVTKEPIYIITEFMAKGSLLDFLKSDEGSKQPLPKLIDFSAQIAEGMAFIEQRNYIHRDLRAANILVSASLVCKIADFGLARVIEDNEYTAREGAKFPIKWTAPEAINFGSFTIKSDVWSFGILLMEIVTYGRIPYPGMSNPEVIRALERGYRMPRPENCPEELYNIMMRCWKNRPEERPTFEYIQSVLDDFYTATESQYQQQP

[8] = target: MERTK (UniProt Q12866); test: as above
MERTK, sequence (Q12866 whole entry, looked up): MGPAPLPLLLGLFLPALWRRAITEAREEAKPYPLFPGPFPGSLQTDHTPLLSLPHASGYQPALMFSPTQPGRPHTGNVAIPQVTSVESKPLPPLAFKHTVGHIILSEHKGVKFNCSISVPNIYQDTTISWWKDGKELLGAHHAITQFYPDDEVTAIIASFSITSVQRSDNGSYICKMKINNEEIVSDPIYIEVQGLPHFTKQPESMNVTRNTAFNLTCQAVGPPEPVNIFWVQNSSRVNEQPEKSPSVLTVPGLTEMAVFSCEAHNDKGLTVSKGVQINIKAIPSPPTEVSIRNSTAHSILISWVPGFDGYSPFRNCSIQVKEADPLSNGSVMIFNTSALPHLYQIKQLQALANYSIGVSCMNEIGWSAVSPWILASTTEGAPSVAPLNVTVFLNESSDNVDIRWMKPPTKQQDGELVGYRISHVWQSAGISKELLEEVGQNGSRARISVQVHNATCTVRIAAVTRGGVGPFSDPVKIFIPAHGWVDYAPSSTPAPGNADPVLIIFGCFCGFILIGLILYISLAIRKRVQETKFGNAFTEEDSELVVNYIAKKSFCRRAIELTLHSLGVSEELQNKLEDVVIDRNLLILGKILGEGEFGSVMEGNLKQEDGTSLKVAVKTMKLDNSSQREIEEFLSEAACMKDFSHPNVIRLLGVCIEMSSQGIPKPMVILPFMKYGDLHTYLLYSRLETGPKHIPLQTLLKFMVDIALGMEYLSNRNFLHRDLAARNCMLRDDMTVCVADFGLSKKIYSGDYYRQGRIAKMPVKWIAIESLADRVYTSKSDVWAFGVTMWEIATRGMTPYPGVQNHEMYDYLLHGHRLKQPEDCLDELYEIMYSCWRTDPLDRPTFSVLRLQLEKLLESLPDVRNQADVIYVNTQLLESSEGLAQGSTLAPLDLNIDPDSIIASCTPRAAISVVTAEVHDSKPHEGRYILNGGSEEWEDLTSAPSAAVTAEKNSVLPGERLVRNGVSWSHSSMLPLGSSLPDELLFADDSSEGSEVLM

[9] = system: Fer (mouse); test: as above
[10] = system: AncSZ; test: as above
[11] = target: EPHB2 (UniProt P29323); test: as above
[12] = target: EPHB1 (UniProt P54762); test: as above
EPHB1, sequence (P54762 whole entry, looked up): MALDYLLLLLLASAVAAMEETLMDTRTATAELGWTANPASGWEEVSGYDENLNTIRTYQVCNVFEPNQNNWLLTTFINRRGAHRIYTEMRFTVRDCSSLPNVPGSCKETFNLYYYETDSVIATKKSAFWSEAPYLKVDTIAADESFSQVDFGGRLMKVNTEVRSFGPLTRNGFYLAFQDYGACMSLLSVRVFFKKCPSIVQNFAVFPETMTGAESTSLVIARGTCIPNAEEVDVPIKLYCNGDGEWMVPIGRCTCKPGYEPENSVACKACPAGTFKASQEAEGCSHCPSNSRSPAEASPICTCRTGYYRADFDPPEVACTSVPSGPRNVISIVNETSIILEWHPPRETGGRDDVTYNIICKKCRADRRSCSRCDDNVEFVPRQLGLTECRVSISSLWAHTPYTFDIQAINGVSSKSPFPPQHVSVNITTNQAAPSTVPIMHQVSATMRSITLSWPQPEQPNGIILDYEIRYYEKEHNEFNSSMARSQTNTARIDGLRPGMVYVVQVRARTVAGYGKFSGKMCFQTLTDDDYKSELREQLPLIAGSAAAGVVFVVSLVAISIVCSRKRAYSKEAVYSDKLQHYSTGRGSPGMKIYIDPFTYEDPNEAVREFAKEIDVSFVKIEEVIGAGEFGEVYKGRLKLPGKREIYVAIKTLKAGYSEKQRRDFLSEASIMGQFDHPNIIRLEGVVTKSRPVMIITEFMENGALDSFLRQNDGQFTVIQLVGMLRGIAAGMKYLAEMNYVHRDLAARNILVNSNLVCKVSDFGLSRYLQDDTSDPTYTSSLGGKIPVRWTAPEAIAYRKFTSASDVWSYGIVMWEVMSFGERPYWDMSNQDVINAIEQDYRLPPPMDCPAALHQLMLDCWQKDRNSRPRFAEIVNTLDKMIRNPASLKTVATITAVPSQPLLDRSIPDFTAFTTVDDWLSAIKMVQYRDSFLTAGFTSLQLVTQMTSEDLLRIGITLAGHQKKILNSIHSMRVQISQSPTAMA

[13] = target: FGFR1 (UniProt P11362); test: as above
[14] = target: SHP2-C SH2; test: SH2 binding enrichment of the phosphorylated peptide, bacterial display (enrichment ratio); higher = better substrate or ligand; peptides without Tyr show the background
[15] = target: c-Src SH2; test: as above
[16] = target: Grb2 SH2 (UniProt P62993); test: as above
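Wherever SH2 binding enrichment of the phosphorylated peptide, bacterial display is given: peptide library displayed on the E. coli surface as eCPX fusions, selected cells deep-sequenced, score is each peptide's frequency after selection divided by its frequency in the input.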
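Wherever phosphorylation enrichment, bacterial display is given: 11-residue human phosphosite peptides and single-mutation variants displayed on the E. coli surface, counted by deep sequencing, each peptide's frequency after selection divided by its frequency in the unselected input library; frequency after pTyr selection over input frequency; kinase dosed for 20-30% of maximal phosphorylation in three min.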

Jak2, sequence (O60674 whole entry, looked up): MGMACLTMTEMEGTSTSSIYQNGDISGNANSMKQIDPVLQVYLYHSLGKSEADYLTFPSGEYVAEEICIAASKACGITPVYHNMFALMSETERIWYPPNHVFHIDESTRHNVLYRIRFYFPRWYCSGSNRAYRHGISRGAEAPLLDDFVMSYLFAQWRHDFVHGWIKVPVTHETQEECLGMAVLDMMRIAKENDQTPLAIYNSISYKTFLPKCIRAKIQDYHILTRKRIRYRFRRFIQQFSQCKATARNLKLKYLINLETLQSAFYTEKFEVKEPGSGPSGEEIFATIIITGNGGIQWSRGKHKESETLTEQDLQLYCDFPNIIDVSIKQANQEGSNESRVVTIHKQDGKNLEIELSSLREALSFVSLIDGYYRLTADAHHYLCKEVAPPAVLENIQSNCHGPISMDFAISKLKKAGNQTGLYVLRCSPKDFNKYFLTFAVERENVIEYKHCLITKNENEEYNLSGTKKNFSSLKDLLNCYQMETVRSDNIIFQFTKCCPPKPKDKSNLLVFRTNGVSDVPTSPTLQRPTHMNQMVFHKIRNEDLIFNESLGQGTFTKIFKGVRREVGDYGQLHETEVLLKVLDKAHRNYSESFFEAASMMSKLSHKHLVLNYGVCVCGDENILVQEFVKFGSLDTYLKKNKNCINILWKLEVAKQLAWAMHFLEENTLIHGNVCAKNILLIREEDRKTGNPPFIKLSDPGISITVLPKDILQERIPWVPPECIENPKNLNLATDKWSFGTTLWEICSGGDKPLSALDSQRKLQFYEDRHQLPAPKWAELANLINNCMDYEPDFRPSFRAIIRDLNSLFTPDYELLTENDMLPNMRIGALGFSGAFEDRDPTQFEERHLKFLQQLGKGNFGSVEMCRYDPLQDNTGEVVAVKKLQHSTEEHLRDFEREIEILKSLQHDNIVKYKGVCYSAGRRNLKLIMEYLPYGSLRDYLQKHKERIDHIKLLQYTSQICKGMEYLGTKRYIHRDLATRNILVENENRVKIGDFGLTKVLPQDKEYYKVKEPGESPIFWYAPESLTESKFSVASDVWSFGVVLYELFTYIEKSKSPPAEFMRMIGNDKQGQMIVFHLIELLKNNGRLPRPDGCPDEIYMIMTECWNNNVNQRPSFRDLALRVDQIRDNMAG

| SH2 binding enrichment [14] | SH2 binding enrichment [15] | SH2 binding enrichment [16] | Sequence | phosphorylation enrichment [1] | phosphorylation enrichment [2] | phosphorylation enrichment [3] | phosphorylation enrichment [4] | phosphorylation enrichment [5] | phosphorylation enrichment [6] | phosphorylation enrichment [7] | phosphorylation enrichment [8] | phosphorylation enrichment [9] | phosphorylation enrichment [10] | phosphorylation enrichment [11] | phosphorylation enrichment [12] | phosphorylation enrichment [13] |
| --- | --- | --- | --- | --- | --- | --- | --- | --- | --- | --- | --- | --- | --- | --- | --- | --- |
| 3.21 | 1.85 | 1.83 | CTTIHYTFMCN [TP53_Y234_N235T_YF] | 0.976 | 0.653 | 0.754 | 0.819 | 1.14 | 0.535 | 0.576 | 0.536 | 0.575 | 0.939 | 0.553 | 0.562 | 0.718 |
| 0.776 | 0.658 | 0.854 | QFPDVYAREEV [CRX_Y67_YF] | 1.53 | 0.672 | 0.693 | 0.68 | 1.43 | 0.624 | 0.645 | 0.603 | 0.879 | 1.06 | 0.489 | 0.514 | 0.649 |
| 0.912 | 0.477 | 0.858 | KPLMPCMRFSR [SMARCE1_Y73_Y73C_YF] | 0.707 | 0.469 | 0.502 | 0.88 | 0.916 | 0.466 | 0.439 | 0.506 | 0.443 | 0.92 | 0.448 | 0.39 | 0.393 |
| 0.782 | 0.81 | 1.05 | FFWDGYMPRQF [GSS_Y270_R267W_YF] | 3.7 | 0.43 | 0.735 | 0.734 | 1.19 | 0.349 | 0.471 | 0.398 | 0.504 | 1.12 | 0.551 | 0.601 | 0.481 |
| 0.592 | 0.341 | 0.604 | DDLEVYLKHPL [SACS_Y3477_L3481P] | 1.32 | 1.85 | 0.735 | 0.842 | 1.31 | 1.26 | 1.73 | 0.562 | 0.558 | 1.53 | 0.625 | 0.871 | 0.643 |
| 0.579 | 0.485 | 1.22 | QEMMEYRHQIQ [DES_Y324] | 2.03 | 1.12 | 1.04 | 1.86 | 2.13 | 0.559 | 0.902 | 0.762 | 0.303 | 2.04 | 0.833 | 0.93 | 0.677 |
| 0.738 | 0.609 | 0.802 | STEEQYRIRQV [EFHC1_Y115] | 0.516 | 0.331 | 0.554 | 0.43 | 0.589 | 0.475 | 0.41 | 0.345 | 0.375 | 0.718 | 0.416 | 0.314 | 0.425 |
| 0.473 | 9.05 | 0.712 | ESLRSYDVMDV [KCNQ2_Y562_P561S] | 0.921 | 0.509 | 0.993 | 0.817 | 1.28 | 0.556 | 0.616 | 0.523 | 0.555 | 1.03 | 0.714 | 0.663 | 0.581 |
| 0.799 | 0.594 | 0.792 | TFTVSYLPDMS [FLNC_Y1602_YF] | 0.975 | 0.478 | 0.735 | 0.835 | 1.28 | 0.495 | 0.48 | 0.442 | 0.436 | 1.08 | 0.599 | 0.631 | 0.607 |
| 1.19 | 0.498 | 0.723 | MEYLPYGSLRD [JAK2_Y934] | 1.41 | 4.9 | 1.02 | 1.02 | 1.26 | 4.56 | 5.07 | 0.511 | 1.25 | 1.45 | 1.41 | 2.63 | 1.15 |
| 1.07 | 0.743 | 1.14 | FRTGHYLCNAC [GATA1_Y223_D218Y_YF] | 0.53 | 0.401 | 0.625 | 0.393 | 0.634 | 0.44 | 0.443 | 0.399 | 0.363 | 0.62 | 0.484 | 0.479 | 0.566 |
| 0.574 | 2.1 | 1.07 | RAMPVYEKAEH [TP63_Y231_K232E] | 1.03 | 0.776 | 0.545 | 0.576 | 0.598 | 0.867 | 1.02 | 0.453 | 1.79 | 0.664 | 0.834 | 0.654 | 0.493 |
| 1.18 | 1.34 | 1.29 | WCKPPYFSCAV [MMS22L_Y28] | 0.845 | 0.459 | 0.656 | 0.656 | 0.908 | 0.459 | 0.432 | 0.418 | 0.474 | 1.06 | 0.562 | 0.506 | 0.512 |
| 0.604 | 0.562 | 0.775 | QQLQGYVPSNY [FRK_Y99_I100V] | 0.822 | 0.413 | 0.733 | 0.64 | 0.874 | 0.486 | 0.537 | 0.396 | 0.45 | 0.554 | 0.36 | 0.552 | 0.458 |
| 0.7 | 0.466 | 0.797 | MSNFAYVKREV [SCN1A_Y1694] | 0.651 | 0.388 | 0.61 | 0.516 | 0.986 | 0.418 | 0.552 | 0.471 | 0.419 | 0.729 | 0.437 | 0.457 | 0.447 |
| 1.3 | 0.914 | 0.83 | QFKDKYLAKHN [CASK_Y712_YF] | 0.788 | 0.34 | 0.298 | 0.35 | 0.467 | 0.266 | 0.384 | 0.403 | 0.433 | 0.519 | 0.268 | 0.53 | 0.383 |
| 0.685 | 0.422 | 0.795 | SVTCTYSPALF [TP53_Y126_N131Y_YF] | 1.52 | 1 | 1.17 | 1.05 | 1.74 | 0.837 | 0.695 | 0.479 | 0.727 | 1.51 | 0.694 | 0.872 | 0.542 |

| SH2 binding enrichment [14] | SH2 binding enrichment [15] | SH2 binding enrichment [16] | Sequence | phosphorylation enrichment [1] | phosphorylation enrichment [2] | phosphorylation enrichment [3] | phosphorylation enrichment [4] | phosphorylation enrichment [5] | phosphorylation enrichment [6] | phosphorylation enrichment [7] | phosphorylation enrichment [8] | phosphorylation enrichment [9] | phosphorylation enrichment [10] | phosphorylation enrichment [11] | phosphorylation enrichment [12] | phosphorylation enrichment [13] |
| --- | --- | --- | --- | --- | --- | --- | --- | --- | --- | --- | --- | --- | --- | --- | --- | --- |
| 0.842 | 0.472 | 0.926 | PSGPMYRGAVP [ASAH1_Y43_T42M] | 0.67 | 0.334 | 0.573 | 0.68 | 1.21 | 0.467 | 0.48 | 0.483 | 0.347 | 0.617 | 0.539 | 0.34 | 0.392 |
| 0.634 | 0.542 | 0.933 | DASAVYLHDFQ [PLCG2_Y242] | 0.792 | 0.447 | 0.543 | 0.573 | 1.31 | 0.533 | 0.622 | 0.477 | 0.474 | 0.746 | 0.561 | 0.528 | 0.477 |
| 0.842 | 0.455 | 0.954 | EVVGKYSVHNA [MLH1_Y183_R182K] | 0.569 | 0.438 | 0.449 | 0.527 | 0.697 | 0.428 | 0.388 | 0.374 | 0.426 | 0.612 | 0.363 | 0.363 | 0.352 |
| 0.502 | 0.427 | 0.633 | CTNELYMMMRD [FGFR1_Y730] | 1.35 | 1.15 | 1.28 | 0.898 | 1.38 | 0.705 | 1.47 | 2 | 0.693 | 1.34 | 1.09 | 1.86 | 0.935 |
| 1.3 | 0.697 | 0.893 | RSFLSYFTSHV [NEFL_Y442_P440L_YF] | 1.1 | 0.879 | 1 | 1.05 | 1.8 | 0.642 | 0.915 | 0.826 | 0.677 | 1.54 | 0.743 | 0.759 | 0.752 |
| 1.31 | 1 | 1.27 | GMRHGHGVRQS [JPH2_Y141_Y141H] | 0.975 | 0.529 | 0.696 | 1.28 | 0.803 | 0.419 | 0.495 | 0.462 | 0.529 | 0.646 | 0.45 | 0.775 | 0.471 |
| 1 | 1.44 | 0.835 | DFPGIYSGYDD [POLR1C_Y33_N32I] | 0.946 | 5.19 | 0.696 | 0.796 | 1.05 | 6.48 | 3.4 | 0.565 | 0.687 | 1.09 | 0.652 | 0.627 | 0.485 |
| 0.546 | 0.833 | 0.699 | PANMVYSTVEI [SLAMF7_Y304_T302M] | 0.659 | 8.24 | 2.26 | 6.82 | 1.77 | 10.6 | 9.3 | 8.74 | 20.3 | 1.38 | 3.32 | 3.27 | 2.6 |
| 1.29 | 1.96 | 1.02 | SKGFAYVHFDS [PABPC5_Y149_YF] | 0.832 | 0.314 | 0.584 | 0.681 | 0.871 | 0.381 | 0.378 | 0.378 | 0.408 | 0.814 | 0.466 | 0.477 | 0.393 |
| 14.5 | 1.12 | 1.11 | HTVVSYAKVRA [CLOCK_Y378_E380K] | 1.04 | 0.489 | 0.933 | 0.65 | 1.3 | 1.23 | 0.85 | 0.934 | 0.673 | 1.2 | 0.972 | 0.749 | 0.917 |
| 0.626 | 5.09 | 0.736 | LIEQAYDNLHE [PRPF8_Y871_P874L] | 0.593 | 0.325 | 1.05 | 0.479 | 1.38 | 0.714 | 1.15 | 0.426 | 0.821 | 1.44 | 0.877 | 0.623 | 0.6 |
| 0.849 | 0.507 | 0.91 | KSVITYSPTTG [ITGB3BP_Y32] | 0.586 | 0.462 | 0.464 | 0.447 | 0.592 | 0.38 | 0.353 | 0.403 | 0.401 | 0.49 | 0.49 | 0.325 | 0.37 |
| 0.716 | 0.542 | 0.831 | EEEPVYEAEPE [HCLS1_Y360] | 1.38 | 0.851 | 0.84 | 1.14 | 1.42 | 0.765 | 0.73 | 0.72 | 0.655 | 1.49 | 0.712 | 0.664 | 0.646 |
| 0.351 | 0.911 | 0.986 | REVPVYTDSEP [FAM120B_Y368] | 1.38 | 0.872 | 1.4 | 0.964 | 1.35 | 0.753 | 0.643 | 0.478 | 0.895 | 1.35 | 0.725 | 0.965 | 0.588 |
| 0.564 | 0.695 | 1.11 | EPYELYCEMGS [CBL_Y371_Q367P] | 1.61 | 4.82 | 3.14 | 2.36 | 1.74 | 4.13 | 4.22 | 3.54 | 3.52 | 3.71 | 6.42 | 5.73 | 3.54 |
| 0.791 | 0.484 | 0.723 | LAAAGYDVEKN [H1-3_Y72] | 0.711 | 0.365 | 0.658 | 0.582 | 1.03 | 0.493 | 0.692 | 0.54 | 0.436 | 0.909 | 0.482 | 0.463 | 0.51 |
